Patent US20250154215A1, “PHARMACEUTICAL COMPOSITION FOR TREATING COLITIS OR COLORECTAL CANCER COMPRISING COLON-TARGETED S100A8/A9-DERIVED SPECIFIC PEPTIDE” (Industry-University Cooperation Foundation Hanyang …, priority 2023, published 2025)
Entries after “also recorded” stand apart in the source; their conditions may differ.

Assays:
[1] = DSS-induced acute colitis mouse model; assay type: in vivo, mice
Experimental: DSS-induced acute or chronic colitis and AOM/DSS CRC mouse models were prepared using 6-week-old C57BL/6 female mice (Samtako Bio, Osan, Korea). To assess the induction of acute colitis, mice were exposed ad libitum to 3% (w/v) dextran sodium sulfate (molecular weight: 36-50 kDa, MP Biomedicals, Santa Ana, CA, USA) dissolved in drinking water. The mouse models are illustrated in FIGS. 7A, 5E, and 6A. DSS solutions were prepared every two days. […] The humane endpoint for weight loss (requiring euthanasia) was 20% (compared to the original body weight of an animal). Without an approved exception request, body weight loss could not exceed 20%.
The clinical score of colitis was obtained by measuring body weight, fecal occult blood or total blood loss, and stool consistency every other day during the induction of colitis. The clinical score were assessed by two trained investigators who were randomly selected. For immunohistochemical analysis of tissue sections, mouse distal colon tissues were fixed in 10% formalin and embedded in paraffin. Paraffin sections ([…]) were cut and stained with H&E. Histopathological scoring was performed by a certified pathologist (Min-Kyung Kim, Department of Pathology, Kim Min-Kyung Pathology Clinic, Seoul, Korea) who scored each organ section independently without prior knowledge of the treatment group.
The therapeutic efficacy of rCT-S100A8/A9 on DSS-induced acute colitis in mice was evaluated. After colitis was induced by DSS, the mice were intraperitoneally injected with rCT-S100A8/A9 (50 μg/kg) once daily for 6, 7, or 8 days, and sacrificed on day 12 to evaluate the effect of treatment frequency (FIG. 7A, top). […] Next, the length of the colon, which is an indicator of colitis, was evaluated.

[2] = assay type: in vitro ADME; settings: human, microsomes, 0.5 h
Experimental: 0.1 M phosphate buffer (pH 7.4) and S100A8/A9 peptide ([…]) or rCT-S100A8/A9 protein (10 μg/mL) were added to human liver microsomes (0.5 mg/mL). After incubation at 37° C. for five minutes, the NADPH-generating system solution was also added and incubated again at 37° C. for 30 minutes. To terminate the reaction, acetonitrile containing an internal standard (clopramide) was added, and the resulting mixture was centrifuged for five minutes (14,000 rpm, 4° C.). The supernatant was then injected into an LC-MS/MS system to analyze the microsomal stability of the tested substances.

[3] = Colon targeting of Cy5.5-conjugated protein in DSS-induced acute colitis mice (FACS); settings: mouse, in vivo, ip
Experimental: FIGS. 6A-6D show the effect of rCT-S100A8/A9 peptide on colon targeting. […] Mice were exposed to 3% DSS for six days and evaluated on day 6 (left). For IB with αITGA6, αITGB1, or αActin, multiple organ harvests were used and ITGA6+ or ITGB1+ cell numbers were analyzed through FACS. […] Intraperitoneal administration of rCT-S100A8/9 conjugated with Cy5.5 for one hour and colon harvest. Colon harvests were used for IB including αITGA6, αITGB1, or αActin and ITGA6+ or ITGB1+ cell numbers were analyzed through FACS. […] Mice were treated with 3% DSS for six days and administered 1, 2, or 3 doses of Texas Red conjugated with rCT-S100A8/9. Colons were harvested in a time-dependent manner and analyzed for Texas Red+ cell numbers through FACS. Data is representative of three independent experiments with similar results. Data is shown as the mean±SD of three experiments;
Fourth, to further investigate the physiological significance of rCT-S100A8/A9 in inflammatory colitis, a DSS-induced colitis mouse model was used (FIG. 6). […] Next, to evaluate the specificity of rCT-S100A8/A9, ITGA6- or ITGB1-knockdown mice were generated by sh-lentivirus transduction. […] Finally, the pharmacodynamics of rCT-S100A8/A9 were evaluated, and according to the FACS analysis, 50% of the rCT-S100A8/A9 was retained in the colon when administered for three consecutive days to the mice with DSS-induced acute colitis (FIG. 6D).

[4] = vs rVehicle or rCT-treated group

B1: TWYKIAFQRNRKTWYKIAFQRNRKTWYKIAFQRNRKTWYKIAFQRNRKTWYKIAFQRNRKGGFLVIKGGAHKSHKGGITIITFGGGHHGGFLVIKGGAHKSHKGGITIITFGGGHHGGFLVIKGGAHKSHKGGITIITFGGGHHGG (protein)
chain: TWYKIAFQRNRKTWYKIAFQRNRKTWYKIAFQRNRKTWYKIAFQRNRKTWYKIAFQRNRKGGFLVIKGGAHKSHKGGITIITFGGGHHGGFLVIKGGAHKSHKGGITIITFGGGHHGGFLVIKGGAHKSHKGGITIITFGGGHHGG
modifications: N-terminal 6xHis tag
survival rate ([1]; 50 μg/kg i.p. once daily, 3% DSS): significantly increased | colon damage (H&E staining) ([1]; 3% DSS acute colitis): reduced according to the frequency of rCT-S100A8/A9 treatment; also recorded: alleviated | colon length ([1]; 3% DSS acute colitis): recovered in proportion to the number of rCT-S100A8/A9 treatments | levels of pro-inflammatory cytokines (TNF-α, IL-1β, IL-6, IL-18) and MPO activity in colonic homogenates ([1]; DSS colitis): significantly reduced; also recorded: successfully reduced the secretion of IL-1β and IL-18 | TLR4 (or RAGE)-S100A8 (or S100A9) and NLRP3-ASC interactions in colon ([1]; colon co-IP, DSS treatment): decreased | body weight loss [1, 4]: less body weight loss | colitis scores [1, 4]: lower colitis scores | microsomal stability, remaining [2]: 92% | tissue targeting [3]: specifically targeted the colon tissues of the mice with acute colitis
